The subject of data set [1] is PEG12 construct peptide (Peg12-Val-Cit-Tregitope-Nle), before addition of MPA and HSA.
In data set [2] the test system is PEG2 construct peptide (KKKK-Peg2-Val-Cit-Tregitope-Nle), before addition of MPA and HSA.

From patent US20230158165 come the findings set out here.

In the case of “Recombinant human Cathepsin B (catalog 953-CY of R&D Systems)”, the “cleavage of the Val-Cit site, evaluated by mass spec” value was “For the PEG12 product, successful cleavage is demonstrated” in data set [1]; “the PEG2 peptide did not have successful cleavage, and further modification of the Cathepsin B protocol did not produce successful cleavage” in data set [2].
